From patent US20250084176A1 (F STAR BETA, published 2025)

biological target: T1, hCD137-mFc-Avi (human; mouse, UniProt Q07011 24-186, one biotin on the Avi sequence of each monomer (BirA); unbiotinylated in the SPR of Example 5.6); assay: flow cytometry of the yeast-displayed clone, 10 nM dimeric human antigen
T1 construct: Made in-house in HEK293-6E; also called human CD137-mFc-Avi; dimeric human CD137; not shown: mouse IgG2a Fc domain (mIgG2a Fc)
T1 sequence (Q07011 24-186): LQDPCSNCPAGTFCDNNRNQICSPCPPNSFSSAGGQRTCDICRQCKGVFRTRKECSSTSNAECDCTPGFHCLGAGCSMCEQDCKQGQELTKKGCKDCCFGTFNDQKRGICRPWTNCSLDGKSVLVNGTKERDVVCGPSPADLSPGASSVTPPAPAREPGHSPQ

Row | Binder | % APC positive cells [%]
1 | FS22-172-004, yeast-displayed clone (designed binder) GQPREPQVYTLPPSRDELNYIYPPYNQVSLTCLVKGFYPSDIAVEWESNGQPENNYKTTPPVLDSDGSFFLYSKLTVGADRWLEGNVFSCSVMHEALHNHYTQKSLSLSPG | > 10
2 | FS22-053-008, yeast-displayed clone (designed binder) GQPREPQVYTLPPSRDELNPPYLFSNQVSLTCLVKGFYPSDIAVEWESNGQPENNYKTTPPVLDSDGSFFLYSKLTVDYWRWLEGNVFSCSVMHEALHNHYTQKSLSLSPG | > 30
3 | FS22-172-003, yeast-displayed clone (designed binder) GQPREPQVYTLPPSRDELPYIIPPYNQVSLTCLVKGFYPSDIAVEWESNGQPENNYKTTPPVLDSDGSFFLYSKLTVGADRWLEGNVFSCSVMHEALHNHYTQKSLSLSPG | > 10
4 | FS22-172-006, yeast-displayed clone (designed binder) GQPREPQVYTLPPSRDELRKYYPPYNQLSLTCLVKGFYPSDIAVEWESNGQPENNYKTTPPVLDSDGSFFLYSKLTVGADRWLEGNVFSCSVMHEALHNHYTQKSLSLSPG | > 10
5 | FS22-053-010, yeast-displayed clone (designed binder) GQPREPQVYTLPPSRDELNPPYLFSNQVSLTCLVKGFYPSDIAVEWESNGQPENNYKTTPPVLDSDGSFFLYSKLTVDYMRWLDGNVFSCSVMHEALHNHYTQKSLSLSPG | > 30
6 | FS22-172-001, yeast-displayed clone (designed binder) GQPREPQVYTLPPSRDELPFVMPPYNQVSLTCLVKGFYPSDIAVEWESNGQPENNYKTTPPVLDSDGSFFLYSKLTVGADRWLEGNVFSCSVMHEALHNHYTQKSLSLSPG | > 10
7 | FS22-172-002, yeast-displayed clone (designed binder) GQPREPQVYTLPPSRDELPFQMPPYNQVSLTCLVKGFYPSDIAVEWESNGQPENNYKTTPPVLDSDGSFFLYSKLTVGADRWLEGNVFSCSVMHEALHNHYTQKSLSLSPG | > 10
8 | FS22-172-005, yeast-displayed clone (designed binder) GQPREPQVYTLPPSRDELQQVYPPYNQVSLTCLVKGFYPSDIAVEWESNGQPENNYKTTPPVLDSDGSFFLYSKLTVGADRWLEGNVFSCSVMHEALHNHYTQKSLSLSPG | > 10
9 | FS22-053-009, yeast-displayed clone (designed binder) GQPREPQVYTLPPSRDELNPPYLFSNQVSLTCLVKGFYPSDIAVEWESNGQPENNYKTTPPVLDSDGSFFLYSKLTVEHTRWLDGNVFSCSVMHEALHNHYTQKSLSLSPG | > 30
10 | FS22-053-011, yeast-displayed clone (designed binder) GQPREPQVYTLPPSRDELNPPYLFSNQVSLTCLVKGFYPSDIAVEWESNGQPENNYKTTPPVLDSDGSFFLYSKLTVDYWRWTDGNVFSCSVMHEALHNHYTQKSLSLSPG | > 30
11 | FS22-053-012, yeast-displayed clone (designed binder) GQPREPQVYTLPPSRDELNPPYLFSNQVSLTCLVKGFYPSDIAVEWESNGQPENNYKTTPPVLDSDGSFFLYSKLTVDHMRWLEGNVFSCSVMHEALHNHYTQKSLSLSPG | > 30

biological target: human CD137, full length, on cells (human, UniProt Q07011 24-255); assay: cell-based or functional assay
Sequence (Q07011 24-255): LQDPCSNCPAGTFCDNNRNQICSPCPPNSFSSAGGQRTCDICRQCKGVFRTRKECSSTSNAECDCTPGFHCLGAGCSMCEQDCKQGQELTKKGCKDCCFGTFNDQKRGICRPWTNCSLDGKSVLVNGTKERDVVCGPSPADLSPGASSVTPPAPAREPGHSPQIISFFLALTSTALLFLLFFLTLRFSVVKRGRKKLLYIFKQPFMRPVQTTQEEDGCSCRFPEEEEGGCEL

Row | Binder | NF-kB signalling, HEK.FRT.luc.hCD137, +XL (EC50 nM) [nM]
12 | FS22-172-002/HelD1.3 (bispecific antibody, human IgG1, kappa) heavy: QVQLQESGPGLVRPSQTLSLTCTVSGSTFSGYGVNWVRQPPGRGLEWIGMIWGDGNTDYNSALKSRVTMLVDTSKNQFSLRLSSVTAADTAVYYCARERDYRLDYWGQGSLVTVSSASTKGPSVFPLAPSSKSTSGGTAALGCLVKDYFPEPVTVSWNSGALTSGVHTFPAVLQSSGLYSLSSVVTVPSSSLGTQTYICNVNHKPSNTKVDKKVEPKSCDKTHTCPPCPAPELLGGPSVFLFPPKPKDTLMISRTPEVTCVVVDVSHEDPEVKFNWYVDGVEVHNAKTKPREEQYNSTYRVVSVLTVLHQDWLNGKEYKCKVSNKALPAPIEKTISKAKGQPREPQVYTLPPSRDELPFQMPPYNQVSLTCLVKGFYPSDIAVEWESNGQPENNYKTTPPVLDSDGSFFLYSKLTVGADRWLEGNVFSCSVMHEALHNHYTQKSLSLSPG light: DIQMTQSPASLSASVGETVTITCRASGNIHNYLAWYQQKQGKSPQLLVYNAKTLADGVPSRFSGSGSGTQYSLKINSLQPEDFGSYYCQHFWSTPRTFGGGTKLEIKRTVAAPSVFIFPPSDEQLKSGTASVVCLLNNFYPREAKVQWKVDNALQSGNSQESVTEQDSKDSTYSLSSTLTLSKADYEKHKVYACEVTHQGLSSPVTKSFNRGEC | 124
13 | FS22-172-006/HelD1.3 (bispecific antibody, human IgG1, kappa) heavy: QVQLQESGPGLVRPSQTLSLTCTVSGSTFSGYGVNWVRQPPGRGLEWIGMIWGDGNTDYNSALKSRVTMLVDTSKNQFSLRLSSVTAADTAVYYCARERDYRLDYWGQGSLVTVSSASTKGPSVFPLAPSSKSTSGGTAALGCLVKDYFPEPVTVSWNSGALTSGVHTFPAVLQSSGLYSLSSVVTVPSSSLGTQTYICNVNHKPSNTKVDKKVEPKSCDKTHTCPPCPAPELLGGPSVFLFPPKPKDTLMISRTPEVTCVVVDVSHEDPEVKFNWYVDGVEVHNAKTKPREEQYNSTYRVVSVLTVLHQDWLNGKEYKCKVSNKALPAPIEKTISKAKGQPREPQVYTLPPSRDELRKYYPPYNQLSLTCLVKGFYPSDIAVEWESNGQPENNYKTTPPVLDSDGSFFLYSKLTVGADRWLEGNVFSCSVMHEALHNHYTQKSLSLSPG light: DIQMTQSPASLSASVGETVTITCRASGNIHNYLAWYQQKQGKSPQLLVYNAKTLADGVPSRFSGSGSGTQYSLKINSLQPEDFGSYYCQHFWSTPRTFGGGTKLEIKRTVAAPSVFIFPPSDEQLKSGTASVVCLLNNFYPREAKVQWKVDNALQSGNSQESVTEQDSKDSTYSLSSTLTLSKADYEKHKVYACEVTHQGLSSPVTKSFNRGEC | 382
